In article PMC2174279:
Each block holds one substance with its values, some of them ahead of it.

Tests used:
[1] = biological target: Arc40p (LexA two-hybrid bait) (S. cerevisiae) (UniProt P38328); assay: two-hybrid
Bee1p-HA (S. cerevisiae) = assay: co-IP
[2] = biological target: Arc40p-HA (S. cerevisiae) (UniProt P38328); assay: co-IP
[3] = biological target: Bee1p (1-165) (S. cerevisiae); assay: two-hybrid
[4] = biological target: peptide PRP2 (…), LexA bait; assay: two-hybrid
[5] = biological target: peptide PRP2-1 (…), LexA bait; assay: two-hybrid
[6] = biological target: Bee1p (1-633) (S. cerevisiae); assay: two-hybrid
[7] = biological target: Bee1p (166-633) (S. cerevisiae); assay: two-hybrid
[8] = biological target: Arc19p (LexA two-hybrid bait) (S. cerevisiae) (UniProt P33204); assay: two-hybrid

LacZ expression (two-hybrid) [1]: 366 Miller units
Substance: Myo3p-SH3(W1157S)-AD (1118-1271) (from UniProt P36006 1118-1271) (domain or fragment)

LacZ expression (two-hybrid) [1]: 151 Miller units
Substance: Myo3p-AD (1182-1271) (from UniProt P36006 1182-1271) (domain or fragment)

percent coimmunoprecipitated (Bee1p-HA (S. cerevisiae)): 1%
Substance: Myo3pΔAD (from UniProt P36006 1-1188) (domain or fragment)

LacZ expression (two-hybrid) [1]: 25 Miller units
Substance: Myo3p-AD-32 (1239-1271) (from UniProt P36006 1239-1271) (domain or fragment)

LacZ expression (two-hybrid) [1]: 18 Miller units
Substance: Bee1p-WH2-AD (531-633) (domain or fragment)

percent coimmunoprecipitated [2]: 0.1%
Substance: Myo3p(SH3-W1157S) (from UniProt P36006 1-1272) (natural protein)

LacZ expression (two-hybrid) [3]: 1200 Miller units | LacZ expression (two-hybrid) [4]: 210 Miller units | LacZ expression (two-hybrid) [1]: 458 Miller units | LacZ expression (two-hybrid) [5]: 219 Miller units | LacZ expression (two-hybrid) [6]: 715 Miller units | LacZ expression (two-hybrid) [7]: 113 Miller units | LacZ expression (two-hybrid) [8]: 152 Miller units
Substance: Myo3p-SH3-AD (1118-1271) (from UniProt P36006 1118-1271) (domain or fragment)

LacZ expression (two-hybrid) [6]: 1760 Miller units
Substance: Myo3p-SH3 (1118-1188) (from UniProt P36006 1118-1188) (domain or fragment)

percent of the total Myo3p in the extract coimmunoprecipitated [2]: 1% | percent of the total Myo3p in the extract coimmunoprecipitated (Bee1p-HA (S. cerevisiae)): 1%
Substance: Myo3p (from UniProt P36006 1-1272) (natural protein)
